{"source": "patent US9822156B2", "about": "“Amyloid beta expression constructs and uses therefor” (Whitehead Institute for Biomedical Research, priority 2014, dated 2017)", "molecules": {"B1": {"name": "E22_deletion: yeast construct, four copies of Aβ42 with E22 deleted, SEQ ID NO:79 (protein)", "chain": "MRFPSIFTAVLFAASSALAAPVNTTTEDETAQIPAEAVIGYLDLEGDFDVAVLPFSNSTNNGLLFINTTIASIAAKEEGVSLDKREAEADAEFRHDSGYEVHHQKLVFFADVGSNKGAIIGLMVGGVVIAKREAEAEADAEFRHDSGYEVHHQKLVFFADVGSNKGAIIGLMVGGVVIAKREADAEADAEFRHDSGYEVHHQKLVFFADVGSNKGAIIGLMVGGVVIAKREADAEADAEFRHDSGYEVHHQKLVFFADVGSNKGAIIGLMVGGVVIA"}, "B2": {"name": "Aβ42_Arctic (E22G): lentiviral construct, insulin signal peptide fused to Aβ42 E22G, SEQ ID NO:17 (protein)", "chain": "MALWMRLLPLLALLALWGPDPAAADAEFRHDSGYEVHHQKLVFFAGDVGSNKGAIIGLMVGGVVIA"}, "B3": {"name": "Aβ42_Arc/I31E: lentiviral construct, insulin signal peptide fused to Aβ42 E22G/I31E, SEQ ID NO:23 (protein)", "chain": "B2 chain with I55E"}, "B4": {"name": "Arctic: yeast construct, four copies of Aβ42 E22G, SEQ ID NO:75 (protein)", "chain": "MRFPSIFTAVLFAASSALAAPVNTTTEDETAQIPAEAVIGYLDLEGDFDVAVLPFSNSTNNGLLFINTTIASIAAKEEGVSLDKREAEADAEFRHDSGYEVHHQKLVFFAGDVGSNKGAIIGLMVGGVVIAKREAEAEADAEFRHDSGYEVHHQKLVFFAGDVGSNKGAIIGLMVGGVVIAKREADAEADAEFRHDSGYEVHHQKLVFFAGDVGSNKGAIIGLMVGGVVIAKREADAEADAEFRHDSGYEVHHQKLVFFAGDVGSNKGAIIGLMVGGVVIA"}, "B5": {"name": "Arctic_I31E: yeast construct, four copies of Aβ42 E22G/I31E, SEQ ID NO:77 (protein)", "chain": "B4 chain with I120E, I170E, I220E, I270E"}, "B6": {"name": "Dutch: yeast construct, four copies of Aβ42 E22Q, SEQ ID NO:71 (protein)", "chain": "B4 chain with G111Q, G161Q, G211Q, G261Q"}}, "key": {"Yeast cells": {"tested_on": "Yeast cells", "test": "Yeast growth spotting assay of Aβ expression constructs on glucose or galactose media", "assay_type": "cell-based", "conditions": "galactose-induced expression from 2μ high-copy plasmid pAG425Gal", "from_the_text": "The Aβ sequence was codon optimized for expression in yeast. The Aβ expression construct consists of attB Gateway flanking regions at the 5′ and 3′ ends (nucleotides […] (SEQ ID NO:84) and […] (SEQ ID NO:85), respectively) for Gateway cloning of MatαPrepro-Aβ42 sequence. The entire construct was synthesized into pUC57-Kan plasmid and cloned into the Gateway entry vector pDONR221. These constructs were then transferred into the pAG425Galexpression vector by Gateway LR cloning (Alberti et al., “A suite of Gateway cloning vectors for high throughput genetic analysis in Saccharomyces cerevisiae,” Yeast 24:913 (2007)). The GAL1 promoter enables expression of Aβ fusion transgenes under galactose-inducible conditions. The vector has an ampicillin resistant gene for amplification of the vector in E. coli and leucine auxotrophic marker (LEU2) for selection of transformed yeast cells on media lacking leucine (FIG. 2).\nYeast cells transformed with either an expression vector containing galactose-inducible green fluorescent protein (GFP) or a galactose-inducible expression plasmid encoding a yeast mating factor alpha signal sequence/human amyloid beta 1-42 (Aβ42) or 1-40 (Aβ40) or scrambled Aβ42 fusion polypeptide were grown on glucose or galactose containing synthetic media and growth was assessed. Transformed cells were selected in medium lacking leucine. Individual transformants were grown overnight in complete synthetic medium (CSM) lacking leucine with 2% raffinose as the carbon source. Cell concentrations (OD600) were adjusted in a 96-well plate to OD 0.5 or 1. Cells were then 5-fold serially diluted and spotted on SD media containing glucose (uninduced) and galactose (induced). Plates were incubated at 30° C. for 2 days (glucose) or 3 to 4 days (galactose)."}, "[1]": {"tested_on": "Rat embryonic cortical neurons", "conditions": "lentiviral infection, synapsin promoter, secretory pathway expression", "from_the_text": "Rat embryonic cortical neurons were used for expressing Aβ. For generating lentiviral constructs, an expression vector was used with the human synapsin 1 promoter upstream of the inserted insulin signal peptide-Aβ fusion polypeptide transgene (FIG. 9). The encoded fusion polypeptide is processed in the secretory pathway of the neuron, releasing Aβ in the extracellular milieu.\nThe pLV-Aβ constructs along with the psPAX2 packaging vector and pMD2.G envelope vector were transfected in 293T cells using LIPOFECTAMINE® 2000 (Invitrogen) transfection reagent following the manufacture's instruction to generate lentivirus containing the Aβ transgene. The virus was purified using LENTI-X™ Maxi Purification Kit (Clontech) from the supernatant of the transfected 293T cells according to the protocol provided by the manufacturer. Viral titer were determined by using Lentivirus-Associated p24 ELISA Kit (Cell BioLabs).\nRat embryonic cortices were dissected out of embryonic (E18) rat brains, and neurons were enriched in adherent monolayer culture. These cortical neurons were infected with lentiviral preparation harboring an Aβ transgene or a control gene (RFP in the same vector backbone). Infected cultures were harvested to quantify the amount of Aβ in the supernatant and cell lysate by Aβ-specific ELISA 21 days after infection (FIG. 10A). Corresponding cytotoxicity of the infected neurons was measured by quantifying ATP levels using […]™ assay for cell viability (Lonza)."}, "Rat cortical neurons": {"tested_on": "Rat cortical neurons", "test": "Fluorescence microscopy of neuronal survival and morphology after lentiviral Aβ infection (GFP live imaging, Map2 staining)", "assay_type": "cell-based", "conditions": "for neuronal survival and morphology, GFP live neuron imaging: 21 days after initial infection, identical MOI; for neuronal survival and morphology, Map2 immunostaining: twenty-one days post-infection", "procedure": "Rat cortical neurons were infected with a doxycycline-inducible lentiviral GFP construct. Two days post-infection, the cells were infected again with neuron-specific (synapsin promoter) lentiviral Aβ constructs (i.e., Aβ40, Aβ42, and various mutations). The doubly-infected cells were treated with doxycycline 7 days post-infection to express GFP. After 21 days of the initial infection, live neurons were visualized using fluorescence microscopy to observe the effect of different Aβ variants on neuronal survival and morphology by visualizing neurons expressing GFP in presence of Aβ expressed from the transgenes.\nSimilar observations were also made by immunohistochemical analysis of rat cortical neurons infected with neuron-specific (synapsin promoter) lentiviral Aβ constructs. Twenty-one days post-infection, the neurons were stained with a neuron-specific microtubule-associated protein 2 (Map2) primary antibody (rabbit polyclonal, Millipore) and ALEXA FLUOR® (red fluorophore conjugated) secondary antibody (goat anti-rabbit polyclonal, Life Technologies). Neuronal cells and morphology were visualized to observe the effect of different Aβ mutations using fluorescence microscopy."}, "293T cells": {"tested_on": "293T cells", "test": "TOXILIGHT cytotoxicity assay in stable doxycycline-inducible poly-Aβ 293T cell lines", "assay_type": "cell-based", "conditions": "72-96 hours following doxycycline induction", "from_the_text": "Similar to the poly-Aβ (Aβ40 or Aβ42_1X/4X/6X/8X) expression constructs in yeast (see Example 1), a poly-Aβ toxicity model was developed in mammalian cells. Stable cell lines with chromosomally-integrated tetracycline (doxycycline)-inducible […] transgenes (Aβ42-4X, Aβ42-6X, Aβ40-4X, Aβ40-6X and Aβ42-Arctic-4X) linked to an N-terminal insulin signal peptide were generated (FIGS. 13A-13B). These expression constructs were generated using the pLix402 lentiviral plasmid (FIG. 12). The poly-Aβ constructs were individually transfected into 293T cells along with the lentiviral packaging plasmid psPAX and the viral envelope-expressing plasmid mMD2.G using LIPOFECTAMINE® 2000 (Invitrogen) transfection reagent to generate lentivirus containing the poly-Aβ transgene. The virus was harvested from the supernatant of transfected 293T cells 2 and 3 days post-transfection and subsequently purified and concentrated using the LENTI-X™ Maxi Purification kit (Clontech) according to the manufacturer's instructions.\nTo generate stable cells harboring the expression transgene for the poly-Aβ constructs, 293T cells were infected using POLYBRENE® infection reagent (Sigma Aldrich), which is used to introduce retroviral vectors into mammalian cells. Infected cells were then selected using puromycin (2-10 μg/ml). Infected cells harboring the transgene survive this selection pressure whereas the control cells without the transgene die in 2-3 days. Aliquots of the selected cells were frozen in liquid nitrogen or maintained and propagated for further applications.\nExpression of Aβ peptide from these stable cell lines was measured in the culture supernatant 72-96 hours following doxycycline induction (FIG. 13D). Toxicity was measured 72-96 hours following doxycycline induction using a TOXILIGHT™ cytotoxicity assay (Lonza) as described in Example 2."}, "[2]": {"tested_on": "Rat embryonic cortical neurons", "test": "[…] ATP viability assay in neurons infected with lentiviral poly-Aβ constructs", "assay_type": "cell-based", "conditions": "three weeks post doxycycline-induction (2 μg/ml)", "from_the_text": "Rat embryonic cortical neurons were infected with lentiviral poly-Aβ expression constructs to model poly-Aβ toxicity. Tetracycline (doxycycline)-inducible poly-Aβ (Aβ42-4X, Aβ42-6X, Aβ40-4X, Aβ40-6X, and Aβ42-Arctic-4X) viral constructs described in Example 5 were used to express poly-Aβ constructs in rat cortical neurons. In each expression construct, the poly-Aβ coding sequence is linked to an N-terminal insulin signal peptide. The poly-Aβ expression plasmids were packaged in lentiviral particles, which were generated by 293T cells as described in Example 3.\nRat cortical neurons were enriched from cortices dissected out of embryonic (E18) rat brains and enriched in adherent monolayer culture as described in Example 3. Purified lentiviral preparations at different MOI were used to infect these cortical neurons to express poly-Aβ transgenes. Three days post-infection, expression of poly-Aβ was induced by adding doxycycline (2 μg/ml) to the infected cultures."}}, "note": "Substitutions are numbered along the chain they refer to. Names may count otherwise."}
{"molecule": "Aβ42 (1X): yeast expression construct, mating factor alpha prepro sequence with one copy of Aβ42, SEQ ID NO:51", "values": [{"measurement": "toxicity (inhibition of yeast cell growth) upon expression", "setting": "Yeast cells", "value": "not toxic"}]}
{"molecule": "Aβ42_I31E: lentiviral construct, insulin signal peptide fused to Aβ42 I31E, SEQ ID NO:21", "values": [{"measurement": "cytotoxicity (ATP levels)", "setting": "[1]", "value": "less cytotoxic effects compared to either the wild-type human Aβ42 or the Arctic variation of human Aβ42"}, {"measurement": "neuronal survival and morphology, GFP live neuron imaging", "setting": "Rat cortical neurons", "value": "reduced cytotoxicity and no significant morphological distortions of the neurons and neurites"}, {"measurement": "neuronal survival and morphology, Map2 immunostaining", "setting": "Rat cortical neurons", "value": "reduced cytotoxicity and had no significant effects on the neuronal morphology"}]}
{"molecule": "Aβ40-4X: doxycycline-inducible construct, insulin signal peptide and four copies of Aβ40, SEQ ID NO:41", "values": [{"measurement": "Aβ peptide-mediated cytotoxic effect (adenylate kinase release), rank order", "setting": "293T cells", "value": "Aβ42-6X≧Aβ42-Arctic-4X≧Aβ42-4X≧AB40-6X≧Aβ40-4X"}]}
{"molecule": "AB40-6X: doxycycline-inducible construct, insulin signal peptide and six copies of Aβ40, SEQ ID NO:43", "values": [{"measurement": "Aβ peptide-mediated cytotoxic effect (adenylate kinase release), rank order", "setting": "293T cells", "value": "Aβ42-6X≧Aβ42-Arctic-4X≧Aβ42-4X≧AB40-6X≧Aβ40-4X"}]}
{"molecule": "Aβ42-4X: doxycycline-inducible construct, insulin signal peptide and four copies of Aβ42, SEQ ID NO:35", "values": [{"measurement": "Aβ peptide-mediated cytotoxic effect (adenylate kinase release), rank order", "setting": "293T cells", "value": "Aβ42-6X≧Aβ42-Arctic-4X≧Aβ42-4X≧AB40-6X≧Aβ40-4X"}, {"measurement": "cytotoxicity (viability by ATP levels)", "setting": "[2]", "value": "profound cytotoxicity compared to Aβ40-4X"}]}
{"molecule": "Aβ42-6X: doxycycline-inducible construct, insulin signal peptide and six copies of Aβ42, SEQ ID NO:39", "values": [{"measurement": "Aβ peptide-mediated cytotoxic effect (adenylate kinase release), rank order", "setting": "293T cells", "value": "Aβ42-6X≧Aβ42-Arctic-4X≧Aβ42-4X≧AB40-6X≧Aβ40-4X"}]}
{"molecule": "B1", "values": [{"measurement": "toxicity (inhibition of yeast cell growth) upon expression", "setting": "Yeast cells", "value": "profound toxicity"}]}
{"molecule": "B2", "values": [{"measurement": "cytotoxicity (ATP levels)", "setting": "[1]", "value": "more toxic effect compared to the wild-type human Aβ42"}, {"measurement": "neuronal survival and morphology, GFP live neuron imaging", "setting": "Rat cortical neurons", "value": "caused neuronal death and adversely affected neurite outgrowth and structures"}, {"measurement": "neuronal survival and morphology, Map2 immunostaining", "setting": "Rat cortical neurons", "value": "profound cytotoxicity, resulting in massive neuronal loss and distorted neurite structures and outgrowth"}]}
{"molecule": "B3", "values": [{"measurement": "cytotoxicity (ATP levels)", "setting": "[1]", "value": "less cytotoxic effects compared to either the wild-type human Aβ42 or the Arctic variation of human Aβ42"}, {"measurement": "neuronal survival and morphology, GFP live neuron imaging", "setting": "Rat cortical neurons", "value": "reduced cytotoxicity and no significant morphological distortions of the neurons and neurites"}, {"measurement": "neuronal survival and morphology, Map2 immunostaining", "setting": "Rat cortical neurons", "value": "reduced cytotoxicity and had no significant effects on the neuronal morphology"}]}
{"molecule": "B4", "values": [{"measurement": "toxicity (inhibition of yeast cell growth) upon expression", "setting": "Yeast cells", "value": "profound toxicity"}]}
{"molecule": "B5", "values": [{"measurement": "toxicity (inhibition of yeast cell growth) upon expression", "setting": "Yeast cells", "value": "significantly lower amount of toxicity"}]}
{"molecule": "B6", "values": [{"measurement": "toxicity (inhibition of yeast cell growth) upon expression", "setting": "Yeast cells", "value": "profound toxicity"}]}
